According to patent US20200270339A1 (CEPHALON, published 2020):
Substitutions are numbered along the chain they refer to.

B1: Antibody 63 (antibody, V domains shown)
VH: QVQLQESGPGLVKPSGTLSLTCAVSGGSISSSNWWSWVRQPPGKGLEWIGEIYHYGYTNYNPSLKSRVTISVDKSKNQFSLKLSSVTAADTAVYYCAREGIGWPSFDYWGQGTLVTVSS
VL: SSELTQDPAASVALGQTVRITCQGDTLRNYYASWYQQKPGQAPILVIYGKNNRPSGIPDRFSGSSSGNTASLTITGAQAEDEADYYCNSRDSSGKNLVFGGGTKLTVL
B2: Antibody 73 (antibody, V domains shown)
VH: B1 VH with S84I
VL: B1 VL with N29S
B3: Antibody 78 (antibody, V domains shown)
VH: B1 VH with S84I
VL: B1 VL with N29S, D91E
B4: Antibody 80 (antibody, V domains shown)
VH: B1 VH with S84I
VL: B1 VL with N29S, S92E
B5: Antibody 77 (antibody, V domains shown)
VH: B1 VH with S84I
VL: B1 VL with S92F
B6: Antibody 76 (antibody, V domains shown)
VH: B1 VH with S84I
VL: B1 VL with S92E
B7: Antibody 69 (antibody, V domains shown)
VH: B1 VH
VL: B1 VL with N29S, D91E
B8: Antibody 81 (antibody, V domains shown)
VH: B1 VH with S84I
VL: B1 VL with N29S, S92F
B9: Antibody 74 (antibody, V domains shown)
VH: B1 VH with S84I
VL: B1 VL with D91E
B10: Antibody 67 (antibody, V domains shown)
VH: B1 VH
VL: B1 VL with S92E
B11: Antibody 66 (antibody, V domains shown)
VH: B1 VH
VL: SSELTQDPAASVALGQTVRITCQGDTLRNYYASWYQQKPGQAPILVIYGKNNRPSGIPDRFSGSSSGNTASLTITGAQAEDEADYYCNSRDLSGKNLVFGGGTKLTVLG
B12: Antibody 65 (antibody, V domains shown)
VH: B1 VH
VL: B1 VL with D91E
B13: Antibody 64 (antibody, V domains shown)
VH: B1 VH
VL: B11 VL with N29S, L92S
B14: Antibody 71 (antibody, V domains shown)
VH: B1 VH
VL: B1 VL with N29S, S92E
B15: Antibody 75 (antibody, V domains shown)
VH: B1 VH with S84I
VL: B1 VL with S92L
B16: Antibody 68 (antibody, V domains shown)
VH: B1 VH
VL: B11 VL with L92F
B17: Antibody 79 (antibody, V domains shown)
VH: B1 VH with S84I
VL: B1 VL with N29S, S92L
B18: Antibody 72 (antibody, V domains shown)
VH: B1 VH
VL: B1 VL with N29S, S92F

The binders below were run against human IL-15 complexed with the IL-15 Receptor-alpha (human, UniProt P40933 49-162) (assay: cell-based or functional assay).
human IL-15 complexed with the IL-15 Receptor-alpha, sequence (P40933 49-162 limits assumed, chain 1 of 2): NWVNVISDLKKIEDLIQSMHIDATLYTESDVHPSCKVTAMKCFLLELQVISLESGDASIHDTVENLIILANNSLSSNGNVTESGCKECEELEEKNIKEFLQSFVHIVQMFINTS
human IL-15 complexed with the IL-15 Receptor-alpha, sequence (chain, as listed by the source limits assumed, chain 2 of 2): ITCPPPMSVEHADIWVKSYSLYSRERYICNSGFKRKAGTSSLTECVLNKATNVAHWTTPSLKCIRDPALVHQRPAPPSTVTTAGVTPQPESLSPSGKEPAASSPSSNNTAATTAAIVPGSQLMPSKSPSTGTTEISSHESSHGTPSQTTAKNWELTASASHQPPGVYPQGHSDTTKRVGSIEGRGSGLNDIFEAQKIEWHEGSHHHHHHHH

Row | IC 50 (NK-92) in pM [pM] | Binder
1 | 4.21 | B1
2 | 11.8 | B2
3 | 168 | B3
4 | 22.8 | B4
5 | 5.69 | B5
6 | 7.69 | B6
7 | 162 | B7
8 | 17.3 | B8
9 | 33.9 | B9
10 | 7.69 | B10
11 | 6.04 | B11
12 | 42.5 | B12
13 | 13.6 | B13
14 | 26.4 | B14
15 | 3.14 | B15
16 | 5.34 | B16
17 | 12.4 | B17
18 | 20.9 | B18
